{"source": "paper PMC12714728", "about": "(npj Viruses, 2025)", "binders": {"B1": {"name": "cyclic peptide CP8 (peptide)", "peptide": "CLYRDPLGVAGGMGC", "modifications": "not fully specified (bridges); cysteine pairing not given here", "notes": "source: synthetic peptide (manual solid phase Fmoc chemistry, iodine oxidation, RP-HPLC)"}, "B2": {"name": "cyclic peptide CP14 (peptide)", "peptide": "LYEDPLGVAGGMG", "modifications": "head-to-tail lactam cyclized (no template)", "notes": "source: synthetic peptide (manual solid phase Fmoc chemistry, RP-HPLC)"}, "B3": {"name": "cyclic peptide CP11 (peptide)", "peptide": "CYRDPLGVAGGMC", "modifications": "disulfide 1-13", "notes": "as for B1"}, "B4": {"name": "linear peptide LP1 (peptide)", "peptide": "Suc-VSLYRDPLGVAGGMGVY-NH2", "notes": "as for B2"}}, "note": "Starred links: 1 amine or outer side, 2 acyl side, 3 side chain; linkers in the order of their positions; H or OH if unused. Positions of bridges follow the written chain, without caps; N, C: chain ends. No end group written: not given here. Suc = O=C(CCC(=O)[*:2])[*:1]"}
{"molecular_target": "T1, hemagglutinin (HA) ectodomain of A/Vietnam/1203/2004 (H5N1) (influenza A virus A/Vietnam/1203/2004 …)", "assay": "AlphaScreen or HTRF", "details": "both partners purified", "units": {"IC50": "µM"}}
{"binder": "CYEDPLGVAGGMC (not fully specified; cysteine pairing not given here)", "note": "[cyclic peptide CP12]", "IC50": 28.8}
{"binder": "CYRDPLGVAGEMC (not fully specified; cysteine pairing not given here)", "note": "[cyclic peptide CP13]", "IC50": 39.8}
{"binder": "B1", "IC50": 1.55}
{"binder": "B2", "IC50": 10}
{"binder": "B3", "IC50": 7.78}
{"binder": "B4", "IC50": 47.9}
{"molecular_target": "T1, hemagglutinin (HA) ectodomain of …", "assay": "cell-based or functional assay", "details": "not given", "units": {"virus neutralization assay (VNA) EC50, H5/Viet virus": "µM"}}
{"binder": "B1", "virus neutralization assay (VNA) EC50, H5/Viet virus": 34.6}
